The test addresses T1, TNFRSF17 (Q02223), i.e., BCMA (UniProt Q02223 1-184).
T1 construct: whole, on cells; also called B cell maturation antigen; CD269
T1 sequence (looked up): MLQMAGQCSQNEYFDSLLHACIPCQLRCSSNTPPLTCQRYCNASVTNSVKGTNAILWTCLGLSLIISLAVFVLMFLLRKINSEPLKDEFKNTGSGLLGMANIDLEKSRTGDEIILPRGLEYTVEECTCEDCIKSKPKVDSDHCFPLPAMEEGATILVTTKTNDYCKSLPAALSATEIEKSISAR
The test can be described thus: flow cytometry, HEK293T membrane protein array, 20 ug/mL. On the procedure:
The light chain variable region of SEQ ID NO: 1 and the heavy chain variable region of SEQ ID NO: 2 were used to prepare a single chain antibody B20-scFv-rabFc, and membrane protein array experiment was performed.
20 ug/mL of B20-scFv-rabFc was added to HEK293T cell array transiently transfected with 5344 membrane proteins, respectively.

B1: B20-scFv-rabFc (Fc fusion)
scFv: DIQMTQSPSSLSASVGDRVTITCRASQGISNYLNWYQQKPGKAPKPLIYYTSNLQSGVPSRFSGSGSGTDYTLTISSLQPEDFATYYCMGQTISSYTFGQGTKLEIKGGGGSGGGGSGGGGSEVQLVESGGGLVQPGGSLRLSCAASGFTFSNFDMAWVRQAPGKGLVWVSSITTGADHAIYADSVKGRFTISRDNAKNTLYLQMNSLRAEDTAVYYCVRHGYYDGYHLFDYWGQGTLVTVSS
notes: not shown: rabbit Fc (rabFc)
For B1, the binding result is given as “binds”.

These data come from patent publication US20240000839A1 (CELLULAR BIOMEDICINE GROUP HK, published 2024).
